Measurements: patent US20150344570A1 (published 2015)

T1: FcγRIIa R (human, UniProt P12318 34-217)
T1 construct: extracellular domain; Soluble His-tagged extracellular domain expressed in FreeStyle293 cells; analyte in Biacore; also called FcgRIIa R; FcgRIIaR; not shown: His tag attached to the C terminus
T1 sequence (looked up): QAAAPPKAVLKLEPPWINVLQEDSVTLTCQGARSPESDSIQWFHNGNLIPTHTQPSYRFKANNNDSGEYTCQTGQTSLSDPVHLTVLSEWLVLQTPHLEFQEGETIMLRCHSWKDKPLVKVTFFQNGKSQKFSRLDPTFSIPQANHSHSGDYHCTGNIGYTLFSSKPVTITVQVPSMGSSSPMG

T2: FcγRIIb (human, UniProt P31994 43-217)
T2 construct: extracellular domain; Soluble His-tagged extracellular domain expressed in FreeStyle293 cells; analyte in Biacore; also called FcgRIIb; 2b; not shown: His tag attached to the C terminus
T2 sequence (looked up): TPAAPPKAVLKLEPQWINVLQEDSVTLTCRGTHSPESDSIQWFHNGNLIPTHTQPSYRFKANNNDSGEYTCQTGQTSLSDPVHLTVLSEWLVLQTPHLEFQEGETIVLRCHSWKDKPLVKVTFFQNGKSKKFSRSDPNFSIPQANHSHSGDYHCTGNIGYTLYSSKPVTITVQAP

T3: FcγRIIb (human, UniProt P31994 43-217)
T3 construct: extracellular domain; also called FcgRIIb; 2b
T3 sequence (looked up): T2 sequence (looked up)

B1: GpH7-A5/GpH7-B3 variant P329_09D/GpL16-k0 (antibody, human IgG1, kappa)
heavy 1: not shown
heavy 2: not shown
light: DIVMTQSPLSLPVTPGEPASISCQASESLVHSNRNTYLHWYLQKPGQSPQLLIYKVSNRFSGVPDRFSGSGSGTDFTLKISRVEAEDVGVYYCSQNTHVPPTFGQGTKVEIERTVAAPSVFIFPPSDEQLKSGTASVVCLLNNFYPREAKVQWKVDNALQSGNSQESVTEQDSKDSTYSLSSTLTLSKADYEKHKVYACEVTHQGLSSPVTKSFNRGEC
notes: Heterodimerized anti-glypican-3 IgG1 antibody; alteration only in the GpH7-B3 H chain; position in EU numbering; also called He Ab
B2: GpH7-A5/GpH7-B3 variant V266_01G/GpL16-k0 (antibody, human IgG1, kappa)
heavy 1: not shown
heavy 2: not shown
light: B1 light
notes: mutation in the GpH7-B3 chain only; also called He Ab
B3: GpH7-A5/GpH7-B3 variant S298_14T/GpL16-k0 (antibody, human IgG1, kappa)
heavy 1: not shown
heavy 2: not shown
light: B1 light
notes: as for B1
B4: GpH7-A5/GpH7-B3 variant S298_12R/GpL16-k0 (antibody, human IgG1, kappa)
heavy 1: not shown
heavy 2: not shown
light: B1 light
notes: as for B1
B5: GpH7-A5/GpH7-B3 variant D265_03V/GpL16-k0 (antibody, human IgG1, kappa)
heavy 1: not shown
heavy 2: not shown
light: B1 light
notes: as for B2
B6: GpH7-A5/GpH7-B3 variant P329_11K/GpL16-k0 (antibody, human IgG1, kappa)
heavy 1: not shown
heavy 2: not shown
light: B1 light
notes: as for B1
B7: GpH7-A5/GpH7-B3 variant P329_16H/GpL16-k0 (antibody, human IgG1, kappa)
heavy 1: not shown
heavy 2: not shown
light: B1 light
notes: as for B1
B8: GpH7-A5/GpH7-B3 variant P329_13S/GpL16-k0 (antibody, human IgG1, kappa)
heavy 1: not shown
heavy 2: not shown
light: B1 light
notes: as for B1
B9: GpH7-A5/GpH7-B3 variant P331_01G/GpL16-k0 (antibody, human IgG1, kappa)
heavy 1: not shown
heavy 2: not shown
light: B1 light
notes: as for B1
B10: GpH7-A5/GpH7-B3 variant S298_19Q/GpL16-k0 (antibody, human IgG1, kappa)
heavy 1: not shown
heavy 2: not shown
light: B1 light
notes: as for B1
B11: GpH7-A5/GpH7-B3 variant Y300_18N/GpL16-k0 (antibody, human IgG1, kappa)
heavy 1: not shown
heavy 2: not shown
light: B1 light
notes: as for B1
B12: GpH7-A5/GpH7-B3 variant P329_18N/GpL16-k0 (antibody, human IgG1, kappa)
heavy 1: not shown
heavy 2: not shown
light: B1 light
notes: as for B1
B13: GpH7-A5/GpH7-B3 variant D265_06M/GpL16-k0 (antibody, human IgG1, kappa)
heavy 1: not shown
heavy 2: not shown
light: B1 light
notes: as for B2
B14: GpH7-A5/GpH7-B3 variant P329_15Y/GpL16-k0 (antibody, human IgG1, kappa)
heavy 1: not shown
heavy 2: not shown
light: B1 light
notes: as for B1
B15: GpH7-A5/GpH7-B3 variant S298_16H/GpL16-k0 (antibody, human IgG1, kappa)
heavy 1: not shown
heavy 2: not shown
light: B1 light
notes: as for B1
B16: GpH7-A5/GpH7-B3 variant P329_10E/GpL16-k0 (antibody, human IgG1, kappa)
heavy 1: not shown
heavy 2: not shown
light: B1 light
notes: as for B1
B17: GpH7-A5/GpH7-B3 variant P329_19Q/GpL16-k0 (antibody, human IgG1, kappa)
heavy 1: not shown
heavy 2: not shown
light: B1 light
notes: as for B1
B18: GpH7-A5/GpH7-B3 variant D265_08L/GpL16-k0 (antibody, human IgG1, kappa)
heavy 1: not shown
heavy 2: not shown
light: B1 light
notes: as for B2
B19: GpH7-A5/GpH7-B3 variant D265_07I/GpL16-k0 (antibody, human IgG1, kappa)
heavy 1: not shown
heavy 2: not shown
light: B1 light
notes: as for B2
B20: GpH7-A5/GpH7-B3 variant P329_12R/GpL16-k0 (antibody, human IgG1, kappa)
heavy 1: not shown
heavy 2: not shown
light: B1 light
notes: as for B1
B21: GpH7-A5/GpH7-B3 variant S298_18N/GpL16-k0 (antibody, human IgG1, kappa)
heavy 1: not shown
heavy 2: not shown
light: B1 light
notes: as for B1
B22: GpH7-A5/GpH7-B3 variant S298_20W/GpL16-k0 (antibody, human IgG1, kappa)
heavy 1: not shown
heavy 2: not shown
light: B1 light
notes: as for B1
B23: GpH7-A5/GpH7-B3 variant S298_10E/GpL16-k0 (antibody, human IgG1, kappa)
heavy 1: not shown
heavy 2: not shown
light: B1 light
notes: as for B1
B24: GpH7-A5/GpH7-B3 variant Y300_12R/GpL16-k0 (antibody, human IgG1, kappa)
heavy 1: not shown
heavy 2: not shown
light: B1 light
notes: as for B1
B25: GpH7-A5/GpH7-B3 variant S298_11K/GpL16-k0 (antibody, human IgG1, kappa)
heavy 1: not shown
heavy 2: not shown
light: B1 light
notes: as for B1
B26: GpH7-A5/GpH7-B3 variant D265_04F/GpL16-k0 (antibody, human IgG1, kappa)
heavy 1: not shown
heavy 2: not shown
light: B1 light
notes: as for B2
B27: GpH7-A5/GpH7-B3 variant S298_15Y/GpL16-k0 (antibody, human IgG1, kappa)
heavy 1: not shown
heavy 2: not shown
light: B1 light
notes: as for B1
B28: GpH7-A5/GpH7-B3 variant P329_14T/GpL16-k0 (antibody, human IgG1, kappa)
heavy 1: not shown
heavy 2: not shown
light: B1 light
notes: as for B1

What was measured:
FcγRIIa R [1] = target: T1, FcγRIIa R; experiment: SPR (Biacore), antibody captured via antigen peptide, FcγR as analyte
Description: (§1) The heterodimerized antibodies He Abs in which one of the H chains was introduced with an alteration were assayed for their binding activities to each activating FcγR and inhibitory FcγR according to the method described in Example 4. […] The activating FcγRs in FIGS. 26, 27, 28, and 29 are FcγRIa, FcγRIIa (R), FcγRIIa (H), and FcγRIIIa, respectively.
(§2) Analysis of interaction between objective antibody and the FcγR was carried out using Biacore T100 (GE Healthcare). HBS-EP+ (GE Healthcare) was used as the running buffer, and the measurement temperature was set to 25° C. Chips produced by immobilizing the antigen peptide by the amine coupling method to a Series S Sencor Chip CM5 (GE Healthcare), or alternatively, chips produced by allowing preliminarily biotinylated antigen peptides to interact with and immobilize onto a Series S Sensor Chip SA (certified) (GE Healthcare) were used. Antibodies of interest were captured onto an antigen peptide-immobilized chip, and allowed to interact to each FcγR diluted with running buffer. To regenerate and repeatedly use the chip, the antibodies captured on the chip were washed off by reacting 10 mM glycine-HCl, pH 1.5.

FcγRIIb [2] = target: T2, FcγRIIb; experiment: as above
Description: as §1, §2

FcγRIIa R [3] = target: T1, FcγRIIa R; experiment: ratio of He/Con_2aR to He/Con_2b (binding to FcγRIIb as reference); SPR
FcγRIIIa [4] = target: T4, FcγRIIIa (human, UniProt P08637 17-208); experiment: SPR (Biacore), relative binding
T4 construct: extracellular domain; also called FcgRIIIa; 3a
T4 sequence (P08637 17-208): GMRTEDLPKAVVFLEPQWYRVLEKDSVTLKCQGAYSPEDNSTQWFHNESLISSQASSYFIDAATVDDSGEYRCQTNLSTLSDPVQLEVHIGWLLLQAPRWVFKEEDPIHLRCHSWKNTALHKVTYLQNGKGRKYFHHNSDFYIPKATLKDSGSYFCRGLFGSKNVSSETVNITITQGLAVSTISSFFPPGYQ

FcγRIIb [5] = target: T3, FcγRIIb; experiment: SPR (Biacore), relative binding
FcγRIIIa [6] = target: T4, FcγRIIIa; experiment: SPR; He/Con_3a divided by He/Con_2b (FcγRIIIa against FcγRIIb)

Binder	He/Con_2aR (IIaR binding relative to GpH7-A5/GpH7-B3/GpL16-k0) (FcγRIIa R [1])	He/Con_2b (IIb binding relative to GpH7-A5/GpH7-B3/GpL16-k0) (FcγRIIb [2])	He_2aR/2b (IIaR/IIb) (FcγRIIa R [3])	He/Con_3a (FcγRIIIa [4])	He/Con_2b (FcγRIIb [5])	He_3a/2b (IIIa/IIb) (FcγRIIIa [6]) [ratio]
B1	67.8 % of control (control = 100)	53.5 % of control (control = 100)	1.27			
B2				24 % of GpH7-A5/GpH7-B3/GpL16-k0	51.5 % of GpH7-A5/GpH7-B3/GpL16-k0	0.47
B3	98.5 % of control (control = 100)	77.9 % of control (control = 100)	1.26			
B4	85.3 % of control (control = 100)	57.8 % of control (control = 100)	1.48			
B5				0.6 % of GpH7-A5/GpH7-B3/GpL16-k0	3.2 % of GpH7-A5/GpH7-B3/GpL16-k0	0.19
B6	30.2 % of control (control = 100)	16.9 % of control (control = 100)	1.79			
B7	56.7 % of control (control = 100)	39.1 % of control (control = 100)	1.45			
B8	61.5 % of control (control = 100)	41 % of control (control = 100)	1.5			
B9	61 % of control (control = 100)	45.4 % of control (control = 100)	1.34			
B10	95 % of control (control = 100)	73.3 % of control (control = 100)	1.3			
B11	100 % of control (control = 100)	82.7 % of control (control = 100)	1.21			
B12	61.2 % of control (control = 100)	40.4 % of control (control = 100)	1.51			
B13				2.6 % of GpH7-A5/GpH7-B3/GpL16-k0	10 % of GpH7-A5/GpH7-B3/GpL16-k0	0.26
B14	67.9 % of control (control = 100)	45.7 % of control (control = 100)	1.49			
B15	88.5 % of control (control = 100)	63.5 % of control (control = 100)	1.39			
B16	64.8 % of control (control = 100)	52.7 % of control (control = 100)	1.23			
B17	41.1 % of control (control = 100)	30.7 % of control (control = 100)	1.34			
B18				0 % of GpH7-A5/GpH7-B3/GpL16-k0	4.6 % of GpH7-A5/GpH7-B3/GpL16-k0	0
B19				-0.8 % of GpH7-A5/GpH7-B3/GpL16-k0	1.3 % of GpH7-A5/GpH7-B3/GpL16-k0	-0.61
B20	29.3 % of control (control = 100)	17.6 % of control (control = 100)	1.66			
B21	68 % of control (control = 100)	48.1 % of control (control = 100)	1.41			
B22	55.4 % of control (control = 100)	41.1 % of control (control = 100)	1.35			
B23	65.1 % of control (control = 100)	47.6 % of control (control = 100)	1.37			
B24	55.1 % of control (control = 100)	41.2 % of control (control = 100)	1.34			
B25	95.1 % of control (control = 100)	61.3 % of control (control = 100)	1.55			
B26				0 % of GpH7-A5/GpH7-B3/GpL16-k0	3.2 % of GpH7-A5/GpH7-B3/GpL16-k0	0
B27	79.1 % of control (control = 100)	61.4 % of control (control = 100)	1.29			
B28	57.3 % of control (control = 100)	37.9 % of control (control = 100)	1.51			
